Values belong to the binder of their own block, whether it stands above or below them.
Legend:
Settings in all cases: both partners purified
[1] = biological target: T1, POLA2 (human Pol α accessory subunit) (human, UniProt Q14181 1-598); assay: cryo-EM structure; human replisome: 150 nM CMG on fork DNA (60 nt or 15 nt 5′ flap) with 1.5-fold molar excess of AND-1, TIMELESS-TIPIN, CLASPIN and Pol α-primase; 25 mM HEPES-NaOH pH 7.6, 150 mM NaOAc, 0.5 mM TCEP, 500 μM AMP-PNP, 10 mM Mg(OAc)2, on ice; 10-30% glycerol gradient with glutaraldehyde and BS3 cross-linkers
T1 construct: POLA2, human; stood in the assay as a subunit of m18
T1 sequence: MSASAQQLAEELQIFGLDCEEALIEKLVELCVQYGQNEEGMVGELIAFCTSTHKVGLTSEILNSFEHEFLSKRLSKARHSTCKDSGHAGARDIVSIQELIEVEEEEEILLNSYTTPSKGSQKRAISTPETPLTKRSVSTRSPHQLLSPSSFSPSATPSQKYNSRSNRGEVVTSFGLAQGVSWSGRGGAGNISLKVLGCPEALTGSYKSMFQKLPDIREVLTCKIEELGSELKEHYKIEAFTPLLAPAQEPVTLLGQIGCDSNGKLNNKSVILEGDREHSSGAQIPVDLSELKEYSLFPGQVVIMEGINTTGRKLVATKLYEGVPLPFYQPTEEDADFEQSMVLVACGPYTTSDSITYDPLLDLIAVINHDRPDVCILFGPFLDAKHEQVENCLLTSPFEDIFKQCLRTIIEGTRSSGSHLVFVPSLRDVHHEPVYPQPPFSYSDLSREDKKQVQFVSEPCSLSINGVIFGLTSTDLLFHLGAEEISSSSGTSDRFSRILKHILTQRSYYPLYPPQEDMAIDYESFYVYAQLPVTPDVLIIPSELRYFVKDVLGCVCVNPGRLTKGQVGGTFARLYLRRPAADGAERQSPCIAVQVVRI

[2] = biological target: T2, Pol1 (budding yeast Pol α catalytic subunit) (S. cerevisiae, UniProt P13382 1-1468); assay: cryo-EM structure; budding yeast replisome: 150 nM CMG on fork DNA (39 nt 3′ flap, 60 nt 5′ flap) with 1.5-fold molar excess of Tof1-Csm3, Mrc1 and Pol α-primase; 25 mM HEPES-NaOH pH 7.6, 150 mM NaOAc, 0.5 mM TCEP, 500 μM AMP-PNP, 10 mM Mg(OAc)2, on ice; 10-30% glycerol gradient with glutaraldehyde and BS3 cross-linkers
T2 construct: Pol1, S. cerevisiae; modelled: CTD 1271-1468 and CIP box F140-S149; stood in the assay as a subunit of m1; also called Pol1CTD; Pol1CIP; source: subunit of Pol α-primase from S. cerevisiae strain yAE95, purified as described previously
T2 sequence: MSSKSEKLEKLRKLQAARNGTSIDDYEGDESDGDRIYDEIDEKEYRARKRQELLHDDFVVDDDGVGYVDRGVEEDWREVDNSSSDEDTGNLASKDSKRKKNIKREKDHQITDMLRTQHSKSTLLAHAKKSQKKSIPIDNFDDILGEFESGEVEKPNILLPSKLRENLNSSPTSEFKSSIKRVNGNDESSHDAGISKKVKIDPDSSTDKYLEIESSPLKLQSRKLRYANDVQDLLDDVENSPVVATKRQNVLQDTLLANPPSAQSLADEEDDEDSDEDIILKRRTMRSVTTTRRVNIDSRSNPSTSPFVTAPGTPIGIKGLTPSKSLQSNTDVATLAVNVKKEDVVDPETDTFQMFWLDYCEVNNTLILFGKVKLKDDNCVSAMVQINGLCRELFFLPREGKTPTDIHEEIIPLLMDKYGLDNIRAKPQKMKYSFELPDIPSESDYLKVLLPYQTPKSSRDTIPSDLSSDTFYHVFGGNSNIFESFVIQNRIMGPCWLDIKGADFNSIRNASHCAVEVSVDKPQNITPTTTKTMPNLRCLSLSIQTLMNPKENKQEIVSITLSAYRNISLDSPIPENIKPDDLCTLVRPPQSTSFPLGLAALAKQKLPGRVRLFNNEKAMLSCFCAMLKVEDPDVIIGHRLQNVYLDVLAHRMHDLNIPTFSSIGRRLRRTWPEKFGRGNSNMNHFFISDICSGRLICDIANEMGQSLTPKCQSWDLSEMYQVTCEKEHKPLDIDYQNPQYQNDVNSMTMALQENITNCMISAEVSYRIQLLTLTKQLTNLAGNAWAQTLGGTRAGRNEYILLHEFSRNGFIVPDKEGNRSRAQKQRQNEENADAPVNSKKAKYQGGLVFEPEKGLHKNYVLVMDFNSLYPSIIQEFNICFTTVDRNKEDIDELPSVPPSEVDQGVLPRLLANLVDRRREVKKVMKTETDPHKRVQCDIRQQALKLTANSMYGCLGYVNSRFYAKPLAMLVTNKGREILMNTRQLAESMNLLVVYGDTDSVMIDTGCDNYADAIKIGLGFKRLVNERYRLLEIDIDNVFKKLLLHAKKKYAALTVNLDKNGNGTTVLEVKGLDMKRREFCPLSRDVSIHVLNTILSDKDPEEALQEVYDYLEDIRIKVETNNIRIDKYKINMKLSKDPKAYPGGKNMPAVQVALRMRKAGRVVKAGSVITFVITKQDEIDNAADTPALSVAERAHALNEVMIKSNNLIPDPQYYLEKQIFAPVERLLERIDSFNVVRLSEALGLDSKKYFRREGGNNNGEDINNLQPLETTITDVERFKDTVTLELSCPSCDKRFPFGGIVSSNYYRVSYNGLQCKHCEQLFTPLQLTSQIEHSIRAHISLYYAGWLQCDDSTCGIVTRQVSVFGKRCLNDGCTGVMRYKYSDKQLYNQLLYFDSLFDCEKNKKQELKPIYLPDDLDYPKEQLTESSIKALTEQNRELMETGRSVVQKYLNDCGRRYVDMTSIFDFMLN

[3] = biological target: T3, Mcm3 (budding yeast) (S. cerevisiae, UniProt P24279 1-971); assay: as above
T3 construct: Mcm3, S. cerevisiae; stood in the assay as a subunit of m2; source: subunit of CMG from S. cerevisiae strain yJY197, purified as described previously
T3 sequence (P24279 whole entry): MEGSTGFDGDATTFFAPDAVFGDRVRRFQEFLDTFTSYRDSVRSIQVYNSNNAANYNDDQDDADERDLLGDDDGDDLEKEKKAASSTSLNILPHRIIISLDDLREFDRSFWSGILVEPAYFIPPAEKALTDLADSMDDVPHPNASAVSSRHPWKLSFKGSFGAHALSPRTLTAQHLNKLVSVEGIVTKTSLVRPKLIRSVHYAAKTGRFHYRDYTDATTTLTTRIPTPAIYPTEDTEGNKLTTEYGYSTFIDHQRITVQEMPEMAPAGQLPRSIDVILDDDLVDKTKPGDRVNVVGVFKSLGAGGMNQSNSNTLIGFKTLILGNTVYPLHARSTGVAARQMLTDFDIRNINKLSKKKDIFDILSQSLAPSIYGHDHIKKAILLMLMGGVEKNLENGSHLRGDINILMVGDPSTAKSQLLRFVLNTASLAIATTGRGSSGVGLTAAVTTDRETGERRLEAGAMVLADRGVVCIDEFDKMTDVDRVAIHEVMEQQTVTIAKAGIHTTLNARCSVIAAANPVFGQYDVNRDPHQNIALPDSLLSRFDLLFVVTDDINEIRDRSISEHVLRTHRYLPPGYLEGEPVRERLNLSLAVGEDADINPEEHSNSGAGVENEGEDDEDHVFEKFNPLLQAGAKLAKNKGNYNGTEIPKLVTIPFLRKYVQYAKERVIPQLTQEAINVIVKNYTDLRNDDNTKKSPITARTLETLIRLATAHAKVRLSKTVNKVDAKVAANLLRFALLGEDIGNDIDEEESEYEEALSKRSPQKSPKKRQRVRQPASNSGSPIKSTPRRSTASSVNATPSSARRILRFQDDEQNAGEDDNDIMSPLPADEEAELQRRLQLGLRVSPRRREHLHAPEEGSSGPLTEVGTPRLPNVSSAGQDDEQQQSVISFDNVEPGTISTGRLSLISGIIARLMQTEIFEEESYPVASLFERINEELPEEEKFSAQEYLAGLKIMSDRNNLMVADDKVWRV

[4] = biological target: T4, Mcm5 (budding yeast) (S. cerevisiae, UniProt P29496 1-775); assay: as above
T4 construct: Mcm5, S. cerevisiae; stood in the assay as a subunit of m2; also called Mcm5ZnF; source: subunit of CMG from S. cerevisiae strain yJY197, purified as described previously
T4 sequence: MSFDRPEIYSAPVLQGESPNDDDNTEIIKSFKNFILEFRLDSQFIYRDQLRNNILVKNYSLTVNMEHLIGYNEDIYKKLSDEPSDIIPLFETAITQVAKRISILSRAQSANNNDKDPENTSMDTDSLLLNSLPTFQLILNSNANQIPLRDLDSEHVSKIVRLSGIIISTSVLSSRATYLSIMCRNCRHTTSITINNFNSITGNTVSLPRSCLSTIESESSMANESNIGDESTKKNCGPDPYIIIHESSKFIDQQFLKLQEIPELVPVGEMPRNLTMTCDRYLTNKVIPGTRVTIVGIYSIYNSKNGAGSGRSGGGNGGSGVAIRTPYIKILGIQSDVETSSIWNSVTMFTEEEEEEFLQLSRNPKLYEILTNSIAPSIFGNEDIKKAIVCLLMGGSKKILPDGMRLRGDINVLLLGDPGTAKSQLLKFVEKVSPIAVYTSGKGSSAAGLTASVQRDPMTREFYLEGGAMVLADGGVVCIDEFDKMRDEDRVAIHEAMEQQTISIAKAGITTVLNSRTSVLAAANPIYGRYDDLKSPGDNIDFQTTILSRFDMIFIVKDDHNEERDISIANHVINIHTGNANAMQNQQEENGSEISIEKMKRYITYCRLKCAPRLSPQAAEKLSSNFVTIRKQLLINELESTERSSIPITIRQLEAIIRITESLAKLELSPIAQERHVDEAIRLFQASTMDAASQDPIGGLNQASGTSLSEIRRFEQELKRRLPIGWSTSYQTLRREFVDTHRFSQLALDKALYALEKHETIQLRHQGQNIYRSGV

[5] = biological target: T5, MCM3 (human) (human, UniProt P25205 1-808); assay: cryo-EM structure; human replisome: 150 nM CMG on fork DNA (60 nt or 15 nt 5′ flap) with 1.5-fold molar excess of AND-1, TIMELESS-TIPIN, CLASPIN and Pol α-primase; 25 mM HEPES-NaOH pH 7.6, 150 mM NaOAc, 0.5 mM TCEP, 500 μM AMP-PNP, 10 mM Mg(OAc)2, on ice; 10-30% glycerol gradient with glutaraldehyde and BS3 cross-linkers
T5 construct: MCM3, human; stood in the assay as a subunit of m19
T5 sequence: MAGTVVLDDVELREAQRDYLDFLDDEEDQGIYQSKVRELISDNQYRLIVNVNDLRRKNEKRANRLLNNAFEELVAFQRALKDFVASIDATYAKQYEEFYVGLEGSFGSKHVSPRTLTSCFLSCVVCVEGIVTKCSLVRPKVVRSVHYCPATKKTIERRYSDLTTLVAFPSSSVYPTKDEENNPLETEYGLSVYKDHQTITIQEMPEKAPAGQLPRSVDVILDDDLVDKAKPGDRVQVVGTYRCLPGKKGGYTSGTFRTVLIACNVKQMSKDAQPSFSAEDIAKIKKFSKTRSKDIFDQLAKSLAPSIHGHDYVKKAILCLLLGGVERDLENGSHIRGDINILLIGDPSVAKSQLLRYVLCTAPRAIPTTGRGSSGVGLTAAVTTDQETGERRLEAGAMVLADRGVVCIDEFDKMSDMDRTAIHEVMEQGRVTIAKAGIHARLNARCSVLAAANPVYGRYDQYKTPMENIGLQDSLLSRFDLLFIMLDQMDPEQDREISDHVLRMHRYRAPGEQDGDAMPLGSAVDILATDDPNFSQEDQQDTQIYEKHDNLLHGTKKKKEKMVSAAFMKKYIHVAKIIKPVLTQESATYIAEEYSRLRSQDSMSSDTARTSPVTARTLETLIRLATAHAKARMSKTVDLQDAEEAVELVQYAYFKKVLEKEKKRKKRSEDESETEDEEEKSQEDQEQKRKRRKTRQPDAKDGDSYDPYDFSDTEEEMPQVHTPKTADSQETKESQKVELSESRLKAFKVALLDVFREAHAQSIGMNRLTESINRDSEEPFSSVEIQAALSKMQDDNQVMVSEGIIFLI

- binding result [1]: binds
B1: PSF1 (human GINS subunit) (natural protein)
chain: MFCEKAMELIRELHRAPEGQLPAFNEDGLRQVLEEMKALYEQNQSDVNEAKSGGRSDLIPTIKFRHCSLLRNRRCTVAYLYDRLLRIRALRWEYGSVLPNALRFHMAAEEMEWFNNYKRSLATYMRSLGGDEGLDITQDMKPPKSLYIEVRCLKDYGEFEVDDGTSVLLKKNSQHFLPRWKCEQLIRQGVLEHILS
notes: PSF1, subunit of GINS, human; stood in the assay as a subunit of m19

- binding result [2]: binds
- binding result [3]: binds
- binding result [4]: binds
B2: Pri2 (budding yeast primase accessory subunit) (natural protein, S. cerevisiae)
chain: MFRQSKRRIASRKNFSSYDDIVKSELDVGNTNAANQIILSSSSSEEEKKLYARLYESKLSFYDLPPQGEITLEQFEIWAIDRLKILLEIESCLSRNKSIKEIETIIKPQFQKLLPFNTESLEDRKKDYYSHFILRLCFCRSKELREKFVRAETFLFKIRFNMLTSTDQTKFVQSLDLPLLQFISNEEKAELSHQLYQTVSASLQFQLNLNEEHQRKQYFQQEKFIKLPFENVIELVGNRLVFLKDGYAYLPQFQQLNLLSNEFASKLNQELIKTYQYLPRLNEDDRLLPILNHLSSGYTIADFNQQKANQFSENVDDEINAQSVWSEEISSNYPLCIKNLMEGLKKNHHLRYYGRQQLSLFLKGIGLSADEALKFWSEAFTRNGNMTMEKFNKEYRYSFRHNYGLEGNRINYKPWDCHTILSKPRPGRGDYHGCPFRDWSHERLSAELRSMKLTQAQIISVLDSCQKGEYTIACTKVFEMTHNSASADLEIGEQTHIAHPNLYFERSRQLQKKQQKLEKEKLFNNGNH
notes: Pri2, S. cerevisiae; modelled residues 1-5 (N terminus), 44-177 and 181-299 (NTD); stood in the assay as a subunit of m1; also called Pri2NTD; Pri2_(Nterm); source: subunit of Pol α-primase from S. cerevisiae strain yAE95, purified as described previously

- binding result [5]: binds
B3: PRIM2 (human primase accessory subunit) (natural protein)
chain: MEFSGRKWRKLRLAGDQRNASYPHCLQFYLQPPSENISLIEFENLAIDRVKLLKSVENLGVSYVKGTEQYQSKLESELRKLKFSYRENLEDEYEPRRRDHISHFILRLAYCQSEELRRWFIQQEMDLLRFRFSILPKDKIQDFLKDSQLQFEAISDEEKTLREQEIVASSPSLSGLKLGFESIYKIPFADALDLFRGRKVYLEDGFAYVPLKDIVAIILNEFRAKLSKALALTARSLPAVQSDERLQPLLNHLSHSYTGQDYSTQGNVGKISLDQIDLLSTKSFPPCMRQLHKALRENHHLRHGGRMQYGLFLKGIGLTLEQALQFWKQEFIKGKMDPDKFDKGYSYNIRHSFGKEGKRTDYTPFSCLKIILSNPPSQGDYHGCPFRHSDPELLKQKLQSYKISPGGISQILDLVKGTHYQVACQKYFEMIHNVDDCGFSLNHPNQFFCESQRILNGGKDIKKEPIQPETPQPKPSVQKTKDASSALASLNSSLEMDMEGLEDYFSEDS
notes: PRIM2, human; modelled residues 1-5 (N terminus) and 17-252 (NTD); stood in the assay as a subunit of m18; also called PRIM2NTD; PRIM2_(Nterm)

— paper PMC10501992, “How Pol α-primase is targeted to replisomes to prime eukaryotic DNA replication” (Molecular Cell, 2023)
